± gives the half width of the 95% confidence interval.
Assay: folding stability dG unfold (combined trypsin and chymotrypsin); higher = more stable
Procedure, shortened: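 Digests were run with trypsin and chymotrypsin at 11 concentrations in threefold dilutions, plus a no-protease condition, on designed mini-proteins in a PA-tagged cDNA display construct. The mini-proteins were under 80 residues, had no cysteine, and were kept only when AlphaFold2 dimer inter-PAE was above 15. After sequencing, Bayesian fitting of the counts gave K50, from which unfolding free energy was derived against a sequence-predicted unfolded-state K50 and a shared folded-state K50, per protease or combined.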

Sequence	folding stability dG unfold [kcal/mol]
SAGGSAGGSAMIETSVSLDPKNGLRKVTQNVTPEEYLKLTGGPPIPKENKTTVTLTKTLPVPSAGGSAGGSA [r18_327_JUSTAS]	-0.726 ± 0.16
SAGGSASVSVTELSPEERAALEAAGVEVPDDRPRVVETRTVTPAGGAVVTVRVLPEPPLSPEELAASAGGSA [r15_322_JUSTAS]	-0.127 ± 0.066
SAGGSAGGSMKEGTFNSEEEVEELKKKYPNVEVYEDPETNTIHVKIKEESEKEYEEENIKKLKSAGGSAGGS [r20_191_JUSTAS]	< -1
SAGGSAGGSPPESRPFTTDPGPSGEYTAKLLPPDGSSEEVVLPVSQPRTLNVPKDWSFEVLPPSAGGSAGGS [r12_517_JUSTAS]	-0.338 ± 0.12
SAGGSAGGSAGMLKTIVIKELTPEAKKALLENPDLPEDAEVPTLVEELTVPVKRTPKGLVSAGGSAGGSAGG [r17_194_JUSTAS]	-0.398 ± 0.13
SAGGSAHPVQFPNGQEFPIRNPKNGKDFKIRMEQEDGPMRAEIEYPGGGKKRRIDGPMSLEEALKQSAGGSA [r15_234_TrROS]	-0.0891 ± 0.24
SAGGIKVKITDEDGEEKTFKVKDINVNKSPNNGMPSLKIKLANGRPWVIMIPPGRPLEPGDEITVRPLSAGG [r13_390_TrROS]	-0.452 ± 0.63
SAGGSAGGSAGGPIVLKFKTKEEAEEFAKKLKKEIPNIKEVKIEEDPETGEYYLVVVNDSAGGSAGGSAGGS [r10_544_TrMRF]	5 ± 0.28
SAGGSAGGSAGAPSAPRSVPEVRLLNIDIPASADDPESVELARRLARAALENDAVVVINESAGGSAGGSAGG [r11_519_TrMRF]	0.268 ± 0.11
STITDVEIYKMPPGEEYPFPNGRKIPPGDYMIYNEDNGHYMSADQIRRILQEIEQELEKLPPPKKPENDKSA [r9_517_TrROS]	-0.162 ± 0.43
SAGGLEEVAQELEAQGGEVEVRKVGGGSTEITVRLREPEAPRLLEVRLSLPPAGARLQVLSREALPPSAGGS [r16_613_JUSTAS]	< -1
SAMTTTTTTTDPASGRTVVTTTTPLPDGSVVTTEVDLSNPVRTTTTHPLTDGTPAPTTTTTALPADATLSAG [r14_64_JUSTAS]	-0.345 ± 0.12
SAGGSAGGSGMNVKTIKIYSPEGGETTVPVTGTTVTIGGETVTVTSDVVVPVPPTIKSIEVVGSAGGSAGGS [r12_779_JUSTAS]	0.277 ± 0.082
SAGGSAGGSAGASSLTLEELLKLHPGTVVRKERVELVEGKLVIDLVVEKVDPDTDKLTPESAGGSAGGSAGG [r11_20_JUSTAS]	0.409 ± 0.14
SAGGSTVTFSSEEEIAKLKPVLKKGNPTTLYLNEVRERLLPNGEPVLVPRDVTRTITLVNGKLTESETSAGG [r13_835_JUSTAS]	< -1
SAGGSAGGSAGGSRYLRIETDRIDDVVEAALKTPGVEEVRVDTPADDRFYVLVKVPDEVSAGGSAGGSAGGS [r4_1_TrMRF]	< -1
SAGGSAGGSAGGMSTVVEESFYPEERVLRRTTTTVEEEGVTTEPSVYTVEPGDPNVLTPASAGGSAGGSAGG [r7_866_JUSTAS]	-0.434 ± 0.25
SAGGSAGGSAPEPVVAKLVEVVTLPDGTPVLLFVVDHPDGPPELRLSTDALIEGDDLVDPSSAGGSAGGSAG [r3_261_TrMRF]	-0.0131 ± 0.2
SAGGSAGGSAGGKIEIDNIERFRPPNGNRYYKMTIRVEGNGKEREIWAPADDADNFKIESAGGSAGGSAGGS [r10_326_TrROS]	-0.474 ± 0.25
SAGGSAGGSAGMKTRVTTFTYTEPVLLPDTGELRTVTTTVTFNKPLPEEPLFFTNTPNAGSAGGSAGGSAGG [r17_493_JUSTAS]	-0.158 ± 0.19
SAGGSAGGSAMVTVTILSEDTTDSPRTYTVLFPAEGKALPLPFPADASEAEVRARALELLASAGGSAGGSAG [r3_142_JUSTAS]	< -1
SAGGSAGGSEEIYIKVTVEHPNGEKRTHEIERIRDKDGLPIKQIAKELAQEPNVRDVDVEIVKSAGGSAGGS [r12_199_TrROS]	-0.56 ± 0.15
SAGGSAGGLKPGDTVTLPIEIWIMHMETKKDPNGDPEPRMEPYPYRIPITIPADDLNDGKITLTSAGGSAGG [r6_138_TrROS]	< -1
SAGGSAGGSAGKALVFDSPEDLVEKLKENGVELTDIAEVDAPGGPVVLAPIEGIPKPGFGSAGGSAGGSAGG [r11_141_TrMRF]	0.28 ± 0.16

Sequence	folding stability dG unfold [kcal/mol]
SAGGMTETATTTTTLPDGTVVTTGTTTVTEGSSTTTTTFTTVTTVAPVPPPPYPPAPLPWPEDPVLASAGGS [r8_269_JUSTAS]	< -1
SAGGSAGGSAWRTIEITWPPSNPEEFIDEISKDFGFTVEGEREPNGYHTIDFQLPPGMKIVSAGGSAGGSAG [r3_457_TrROS]	-0.224 ± 0.2
SAGNMTNEQLQERIKEAVREDGWPTYRIKMSGPDGKNMNFQVDFPEERRQKIQKELGWDITEVEPRRYSAGG [r19_50_TrROS]	-0.578 ± 0.3
SAGGDSLPENVIKIELEFEIETEDGSKIELKLEIYISPDNKIYVKAEATIILPDKPIKIEIDFEFDVSAGGS [r16_563_TrMRF]	3.59 ± 0.88
SMEEKEEVLSVEVDPVGEVVVTRTLVKKSAVDPTNPNNPVPLSLEEIVEPVPLPPPVPLPVPGNPRFEAASA [r9_357_JUSTAS]	0.154 ± 0.081
SAGGSAGGSTADALKDLPPGAKIEVEPHPIPNEDGWVYRQHYIKIEDPNKTVELPVIIPIPLPSAGGSAGGS [r12_892_TrROS]	-0.0244 ± 0.37
SAGGSAGGSAGGEVITVKRPDGTPFDVTAVLSEDPVVPLLTVEATDDGPVVTLDVPASLLSAGGSAGGSAGG [r7_236_JUSTAS]	-0.172 ± 0.26
MDIPIKELLKKAAENGVRIVFPNGAETLSIFPDGEAVVRFPVELPDRPGIPVEEVERVIKIKEDGSLEVEGS [r1_284_TrMRF]	< -1
SAGGSAGGSAGPPGEPVRIKLKFPNGNPIEIPGKLDDAEEIAEELQSEGFPFSKVEVEKWSAGGSAGGSAGG [r11_946_TrROS]	-0.603 ± 0.51
SAGGSPAPVRRTVTQLLKVGDKLETRVVEEVVWVPEPPPPPVIPIPEDRGLNEEPVPGTRELTFDAGSAGGS [r8_28_JUSTAS]	-0.195 ± 0.37
SAKKHIPIPMDDPENLKKAIEEALENAENGKKVEIPIRSPDGPVWIEVDPKKKDIKIRNPGNGEERKIKSAG [r14_423_TrROS]	-0.0974 ± 0.53
SAGGSAGGSAGGMKPQPIKVTVERHFPDGTVELEELVFPSPEEVEKFLKENPDWTVVEVESAGGSAGGSAGG [r11_802_JUSTAS]	3.4 ± 0.22
SAGGSALTPAVAERLRELFPDGDLGLKAVKPGEVVVFPNGARNFNTEDAERVVVVLPDGEPLVLDVSAGGSA [r2_166_TrMRF]	-0.241 ± 0.23
SPKPFEMSIQIPGITPQALEKAVELARKDGWVENEIEPDPENNNVQIDVEMRGTPEKMHRAQNAIQEAIKSA [r9_652_TrROS]	-0.386 ± 0.21
PGEMVPIEWPVKVRVRDPNGPGNKKREVEIPIEYPYPPGQKDPEQMLEMAHELAEELAEKEGPKDVEIEPIS [r1_300_TrROS]	-0.474 ± 0.31
SAGGPISVGEIEHAADNVDNSHQNGDPNEMMELYDEAEEIQDQYEENGDPEVRDEVKKVVERAKRHMGSAGG [r13_137_TrROS]	-0.423 ± 0.45
SAGGSAGGSPPENMKIKIYNPNGEEQTIPVEGVKIRFNGDTHEIPPGDSIPIPPGIDAIEIEKSAGGSAGGS [r12_779_TrROS]	0.0926 ± 0.22
SAMLTLPVESTDPARVEAAIAEARALAAQGARVEVPVRTPEGPLRFLVDPATGRVVRTDPATGATEVLPSAG [r14_423_JUSTAS]	-0.244 ± 0.13
SAGGSAGMPRLVEIEVPLPPDAKDPEIKEKIIKTPEGYEYKTIKETSDPSPSSLRKIIMEKKPLKKSAGGSA [r15_852_JUSTAS]	< -1
SAGGSAGGSAMKLTKEYVFTKTITLKNGKTKTESEVLTEEVPPIPLEELIKRLGLPPEELISAGGSAGGSAG [r3_338_JUSTAS]	-0.186 ± 0.32
SAGGPWHEITVRAKGPPGNTPEQAVDEVADELADNNPDFTVEIQEVEVNPEDGQVEATIRVEDGKIVSAGGS [r8_26_TrROS]	< -1
SAGGSAGGSAMTVYVPIEEVGPDENGEYDDELIRERVREEYPDEPVEEVLVEGPEEAERVARSAGGSAGGSA [r18_72_JUSTAS]	-0.384 ± 0.23
SAGGGMSPVGTTTSTSPSGVVTTTTTLEAPPPVVTTTTTTTTPVPPPLPPRPPYGPENRARALARAASAGGS [r16_6_JUSTAS]	< -1
